Here are results for four molecules from patent publication US20190352356A1.

Experiment [1] has as its target human amylin receptor (hAMY1(a)) (human) (UniProt P30988). Put plainly: cell-based or functional assay.
In experiment [2] the target is human calcitonin receptor (hCT(a)) (human) (UniProt P30988). The experiment in a line: cell-based or functional assay.

Bridges are numbered along the chain shown (N, C = ends). Where no end group is shown, it is not given here.

Chain of human calcitonin receptor (hCT(a)) (human) (P30988 25-474): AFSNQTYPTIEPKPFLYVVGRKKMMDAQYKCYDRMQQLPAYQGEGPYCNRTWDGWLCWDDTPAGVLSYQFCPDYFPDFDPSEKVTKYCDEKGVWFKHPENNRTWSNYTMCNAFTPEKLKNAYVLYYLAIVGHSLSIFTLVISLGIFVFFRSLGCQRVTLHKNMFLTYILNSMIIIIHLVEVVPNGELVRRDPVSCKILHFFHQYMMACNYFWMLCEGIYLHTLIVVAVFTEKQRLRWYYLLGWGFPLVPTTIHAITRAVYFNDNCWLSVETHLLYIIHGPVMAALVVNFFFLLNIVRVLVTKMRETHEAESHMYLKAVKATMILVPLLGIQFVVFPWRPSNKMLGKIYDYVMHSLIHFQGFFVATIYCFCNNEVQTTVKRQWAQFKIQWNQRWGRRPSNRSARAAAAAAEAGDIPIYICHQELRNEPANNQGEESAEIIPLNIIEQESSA
Chain of human amylin receptor (hAMY1(a)) (human) (P30988 25-474, chain 1 of 2): as the sequence (P30988 25-474) above
Chain of human amylin receptor (hAMY1(a)) (human) (O60894 27-148, chain 2 of 2, further chain): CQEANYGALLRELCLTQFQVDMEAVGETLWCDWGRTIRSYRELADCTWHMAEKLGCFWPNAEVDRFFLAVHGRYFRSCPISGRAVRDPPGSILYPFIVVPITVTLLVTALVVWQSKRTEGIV

B1: exemplary mutant-hIAPP polypeptide mutant analog 3 (N21K, N35K) (peptide)
peptide: KCNTATCATQRLANFLVHSSKNFGAILSSTNVGSKTY
HELM: PEPTIDE1{K.C.N.T.A.T.C.A.T.Q.R.L.A.N.F.L.V.H.S.S.K.N.F.G.A.I.L.S.S.T.N.V.G.S.K.T.Y.[am]}$PEPTIDE1,PEPTIDE1,2:R3-7:R3$$$V2.0; N-terminus assumed
SMILES: CC[C@H](C)[C@H](NC(=O)[C@H](C)NC(=O)CNC(=O)[C@H](Cc1ccccc1)NC(=O)[C@H](CC(N)=O)NC(=O)[C@H](CCCCN)NC(=O)[C@H](CO)NC(=O)[C@H](CO)NC(=O)[C@H](Cc1c[nH]cn1)NC(=O)[C@@H](NC(=O)[C@H](CC(C)C)NC(=O)[C@H](Cc1ccccc1)NC(=O)[C@H](CC(N)=O)NC(=O)[C@H](C)NC(=O)[C@H](CC(C)C)NC(=O)[C@H](CCCNC(=N)N)NC(=O)[C@H](CCC(N)=O)NC(=O)[C@@H](NC(=O)[C@H](C)NC(=O)[C@@H]1CSSC[C@H](NC(=O)[C@@H](N)CCCCN)C(=O)N[C@@H](CC(N)=O)C(=O)N[C@@H]([C@@H](C)O)C(=O)N[C@@H](C)C(=O)N[C@@H]([C@@H](C)O)C(=O)N1)[C@@H](C)O)C(C)C)C(=O)N[C@@H](CC(C)C)C(=O)N[C@@H](CO)C(=O)N[C@@H](CO)C(=O)N[C@H](C(=O)N[C@@H](CC(N)=O)C(=O)N[C@H](C(=O)NCC(=O)N[C@@H](CO)C(=O)N[C@@H](CCCCN)C(=O)N[C@H](C(=O)N[C@@H](Cc1ccc(O)cc1)C(N)=O)[C@@H](C)O)C(C)C)[C@@H](C)O
Regarding B1, the values for the pEC50 of cAMP production (pEC50 (-log10(EC50))) in experiment [1] and in experiment [2] were 9.13 and 8.62, respectively.

B2: exemplary mutant-hIAPP polypeptide mutant analog 4 (N22K, S28P, N31K as SEQ ID NO: 22 is printed) (peptide)
peptide: KCNTATCATQRLANFLVHSSNKFGAILPSTKVGSNTY-NH2
modifications: disulfide 2-7; not fully specified; printed as KCNTATCATQRLANFLVHSSNKFGAILPSTKVGSNTY-NH2
With B2, the pEC50 of cAMP production (pEC50 (-log10(EC50))) in experiment [1] stood at 9.43; in experiment [2], 8.55.

B3: exemplary mutant-hIAPP polypeptide mutant analog 1 (N22K, G24P, I26P, N31K) (peptide)
peptide: KCNTATCATQRLANFLVHSSNKFPAPLSSTKVGSNTY
HELM: PEPTIDE1{K.C.N.T.A.T.C.A.T.Q.R.L.A.N.F.L.V.H.S.S.N.K.F.P.A.P.L.S.S.T.K.V.G.S.N.T.Y.[am]}$PEPTIDE1,PEPTIDE1,2:R3-7:R3$$$V2.0; N-terminus assumed
SMILES: CC(C)C[C@H](NC(=O)[C@H](CCCNC(=N)N)NC(=O)[C@H](CCC(N)=O)NC(=O)[C@@H](NC(=O)[C@H](C)NC(=O)[C@@H]1CSSC[C@H](NC(=O)[C@@H](N)CCCCN)C(=O)N[C@@H](CC(N)=O)C(=O)N[C@@H]([C@@H](C)O)C(=O)N[C@@H](C)C(=O)N[C@@H]([C@@H](C)O)C(=O)N1)[C@@H](C)O)C(=O)N[C@@H](C)C(=O)N[C@@H](CC(N)=O)C(=O)N[C@@H](Cc1ccccc1)C(=O)N[C@@H](CC(C)C)C(=O)N[C@H](C(=O)N[C@@H](Cc1c[nH]cn1)C(=O)N[C@@H](CO)C(=O)N[C@@H](CO)C(=O)N[C@@H](CC(N)=O)C(=O)N[C@@H](CCCCN)C(=O)N[C@@H](Cc1ccccc1)C(=O)N1CCC[C@H]1C(=O)N[C@@H](C)C(=O)N1CCC[C@H]1C(=O)N[C@@H](CC(C)C)C(=O)N[C@@H](CO)C(=O)N[C@@H](CO)C(=O)N[C@H](C(=O)N[C@@H](CCCCN)C(=O)N[C@H](C(=O)NCC(=O)N[C@@H](CO)C(=O)N[C@@H](CC(N)=O)C(=O)N[C@H](C(=O)N[C@@H](Cc1ccc(O)cc1)C(N)=O)[C@@H](C)O)C(C)C)[C@@H](C)O)C(C)C
B3: the pEC50 of cAMP production (pEC50 (-log10(EC50))) in experiment [1] was 8.47; in experiment [2] it was 8.3.

B4: exemplary mutant-hIAPP polypeptide mutant analog 2 (N21K, G24P, I26P, N35K) (peptide)
peptide: KCNTATCATQRLANFLVHSSKNFPAPLSSTNVGSKTY
HELM: PEPTIDE1{K.C.N.T.A.T.C.A.T.Q.R.L.A.N.F.L.V.H.S.S.K.N.F.P.A.P.L.S.S.T.N.V.G.S.K.T.Y.[am]}$PEPTIDE1,PEPTIDE1,2:R3-7:R3$$$V2.0; N-terminus assumed
SMILES: CC(C)C[C@H](NC(=O)[C@H](CCCNC(=N)N)NC(=O)[C@H](CCC(N)=O)NC(=O)[C@@H](NC(=O)[C@H](C)NC(=O)[C@@H]1CSSC[C@H](NC(=O)[C@@H](N)CCCCN)C(=O)N[C@@H](CC(N)=O)C(=O)N[C@@H]([C@@H](C)O)C(=O)N[C@@H](C)C(=O)N[C@@H]([C@@H](C)O)C(=O)N1)[C@@H](C)O)C(=O)N[C@@H](C)C(=O)N[C@@H](CC(N)=O)C(=O)N[C@@H](Cc1ccccc1)C(=O)N[C@@H](CC(C)C)C(=O)N[C@H](C(=O)N[C@@H](Cc1c[nH]cn1)C(=O)N[C@@H](CO)C(=O)N[C@@H](CO)C(=O)N[C@@H](CCCCN)C(=O)N[C@@H](CC(N)=O)C(=O)N[C@@H](Cc1ccccc1)C(=O)N1CCC[C@H]1C(=O)N[C@@H](C)C(=O)N1CCC[C@H]1C(=O)N[C@@H](CC(C)C)C(=O)N[C@@H](CO)C(=O)N[C@@H](CO)C(=O)N[C@H](C(=O)N[C@@H](CC(N)=O)C(=O)N[C@H](C(=O)NCC(=O)N[C@@H](CO)C(=O)N[C@@H](CCCCN)C(=O)N[C@H](C(=O)N[C@@H](Cc1ccc(O)cc1)C(N)=O)[C@@H](C)O)C(C)C)[C@@H](C)O)C(C)C
In the case of B4, the pEC50 of cAMP production (pEC50 (-log10(EC50))) in experiment [1] came out at 8.75; in experiment [2], 7.97.
